Reference: patent publication US20050054023A1 (BOARD OF SUPERVISORS OF LOUISIANA STATE UNIVERSITY AND …, published 2005)

B1: MBPtide (Thr97) … (peptide)
peptide: APRTPGGR
B2: ERKtide (peptide)
peptide: ATGPLSPFGRR
B3: rat TH-Ser31 peptide KQAEAVTSPR (peptide)
peptide: KQAEAVTSPR
B4: type 1 human TH-Ser31 peptide YQAEAIMSPRFIGRRQ (peptide)
peptide: YQAEAIMSPRFIGRRQ
B5: type 1 human TH-Ser31 peptide EAIMSPRFK (peptide)
peptide: EAIMSPRFK

Target: extracellular signal-regulated protein kinase 2 (purified, recombinant, activated ERK2)
Assay: cell-based or functional assay

Chain of extracellular signal-regulated protein kinase 2 (purified, recombinant, activated ERK2) (P28482 2-360): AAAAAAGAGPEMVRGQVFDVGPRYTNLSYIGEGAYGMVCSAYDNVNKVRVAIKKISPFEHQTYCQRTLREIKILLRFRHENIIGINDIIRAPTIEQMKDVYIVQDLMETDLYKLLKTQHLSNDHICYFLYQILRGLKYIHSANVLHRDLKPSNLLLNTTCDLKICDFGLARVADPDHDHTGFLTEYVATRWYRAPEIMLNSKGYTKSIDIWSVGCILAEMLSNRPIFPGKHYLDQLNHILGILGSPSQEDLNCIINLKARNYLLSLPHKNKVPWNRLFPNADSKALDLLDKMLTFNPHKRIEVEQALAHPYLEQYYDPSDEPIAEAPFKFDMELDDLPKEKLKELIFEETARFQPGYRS

Compared with B1, B2 is higher in V/K: 23 for the first, 136 for the second.

Compared with B3, B4 is higher in V/K: 5 for the first, 80 for the second.

B5 gave a V/K of 28.
